Experimental data from the DeepSol protein solubility set.

assay: soluble on expression in E. coli; label from the status in PepcDB or PDB records

Sequence | soluble on expression in E. coli
MSLKIEPCLPMKILIVEDDPLMQLGLEQALGAHERFEIIGRVDNGYGAVQQAAVLNPDLIVMDIGLPGLDGIEATKQIKQTSPQIHIVVLTSHTLPNEIIAALSSGADAYCVKGATLERLILAIAAAQDGATYLDPQIARVVVENLKPPVPEGQADVSSLSEREIDVLKLIVEGKSNQEIAQTLYLSTNTIKTHVRGIMNKLSVDDRVQAAVIALRSGLVEGHHHHHH | soluble
QPAHSLWLDLTQGEEALLKGMKEMHRRNARLALKRVALSVEGEEAFAEFYRLFTETNRRARLLQHDEAYYRAVLKEMNQPLGEAFLALARKDGEALAAGLFVAFAGKVAYLYGGSTRKHPEAKAPMGMHLAAIRHGMARGYRVYDLWGIPKNPRGSHAEGIHRFKEGFGGQRVQFPA | not soluble
MNVEQQYIDLFSQTEAMICKHSAEVLNAPRAAAFADFERLGFPTRKMEKYKYTDISKYFEPDYGLNLNRLQIPVNPYEVFKCDVPNMSTALYFVVNDAFYNKALPKTHLPEGVIFGSLKEVAAEHPELVKKYYGKLADTSKDGITAFNTAFAQDGVIFYVPKNVIVEKPIQLVNILRADVNFMVNRRVLIILEDGAQARLLICDHAMDNVNFLATQVIEVFAGENAVFDMYELEETHTSTVRISNLYVKQEANSNVLLNGMTLHNGTTRNTTEVLLAGEGAEINLCGMAIADKNQHVDNNTSIDHAVPNCTSNELFKYVLDDQSTGAFAGLVLVRPDAQHTNSQQTNRNLCATRDARMYTQPQLEIYADDVKCSHGATVGQLDENALFYMRARGIAEKEARLLLMFAFVNEVIDTIRLDALKDRLHLLVEKRFRGELNKCQGCAICK | not soluble
MSLRLGIILHGVTGRMGYNQHLVRSVLAIRDQGGIMLKSGGRLEIDPIIVGRNRDKIEQLAKRHDIARWSTDLDAALADPNDQIFFDAGTTLMRAELIGRALDAGKHVYCEKPVSDDLRTAVKLARKARASGLKHGVVQDKLFLPGLQKLALLRDSGFFGKILSVRGEFGYWVFEGDWGVPAQRPSWNYRKKDGGGIILDMLCHWRYVLDNLFGEVKAVSCLGATHISSRIDEQGRAYDCDTDDAAYATFELEGGVIAQINSSWTVRVRRDDLVTFQVDGTHGSAVAGLTKCWTQHRVNTPKPVWNPDQPQTIDFYETWDEVPDTQAFDNGFKAQWEMFLRHVAEDSPWPYGLEAGAKGVQLAELGLKSWAERRWLDVPELEEGHHHHHH | soluble
MGSDKIHHHHHHMASIDFRNKINWHRRYRSPQGVKTEHEILRIFESDRGRIINSPAIRRLQQKTQVFPLERNAAVRTRLTHSMEVQQVGRYIAKEILSRLKEQDRLEEYGLDALTGPFESIVEMACLMHDIGNPPFGHFGEAAINDWFRQRLHPEDAESQPLTHDRCVVSSLRLQEGEENLNDIRRKVRQDICHFEGNAQGIRLVHTLMRMNLTWAQVGGILKYTRPAWWRGPVPDSHRYLMKKPGYYLSEEKYIARLRKELQLAPYSRFPLTWIMEAADDISYCVADLEDAVEKRIFSVEQLYHHLYHAWCHHEKDSLFELVVGNAWEKSRANTLSRSTEDQFFMYLRVNTLNKLVPYAAQRFIDNLPQIFAGTFNQALLEDASGFSRLLELYKNVAVEHVFSHPDVEQLELQGYRVISGLLDIYQPLLSLSLNDFRELVEKERLKRFPIESRLFQKLSTRHRLAYVEVVSKLPTDSAEYPVLEYYYRCRLIQDYISGMTDLYAWDEYRRLMAVEQ | not soluble
MSDEEIDISTALNNKTTPKKKSLKRNSNSQEGYESPEEREIVYPSVFGAIGTPMAKSDNAKEWDEWKEKERKKDKAEWKRYLRSKWDMTQGHLPLVSDSEFLKGRKEHKEYNSKARMDILDGLDEVNEGFFNCGKGAAMNIRYNDKNVSKKGAKKFVATVETAMKKAGNPTMEQMMTDDLDEDEARAEAEWERQREQRKLASRAYDAAMDEREDDAKYVPWDEYCQEMEELGKELKIGEKHYKKWLEKKMDENKVTHKFNAYQLDLKCLDEDAFSNKKSLKSVVRNVQKFYRKMREPKK | not soluble
MGLLVLGTPLDWPESKKYCDYVRENGIMQFLHMYDTYISKKQDVLLWGDEIECIVVSMDDKSKKARVSLRQEDILNALGKYEETFRHVDFGPVYAALRNETCPKKIDAILSEVAKNPADYVERIGGNSNKDTIEITSSTKPHAQNAVPTFHPEYGRYMLESTPGAPYGSTLKDFTFVEYNMRLRRKIIENHLLPNELPLTITNFFRLGTPGFTDPEVEANGAISRSFFLPDDVINTHVRFPTLTANIRQRRGRKVAMNVPIFFDKNTIKPFHDPTVPWDRNLFPEDANARDGAALDNHIYMDSMGFGMGCCCLQITFQAKSCDEARLLYDQLTPITPLMLALSAGTPAFRGYLADQDCRWNVIAGAVDDRTEEEMKTVPKSRYDSVDLYISNDKRNLPEYNDVPVVINQDCYDKLIKDCIDERLAKHMAHIFSRDPLVIFSDSILQDNSVSNAHFENLNSTNWQSMRFKPPPPGSDIGWRVEFRSMEIQITDFENAAYSIFVVMLSRAILSFNLNLYMPISLVDENMKAAHARDAIHRKKFWFRCNPFPDASTDDESGQFRQLTIDELFNGEHRENGFPGLITIVRSYLYSCNPDAKTICLIERYIRLISQRANGQCLTAASWIRNFITTHPSYKQDSVVNDEINYDLIRRIAKIVDGDYDDTLLGKCS | soluble
MESLKSNLFLTREAYLEAFETIMTPLKTAILTSEKPGVNFGSSGAVYDQQHAEMEALIRPLWGIGPYWVTCKDDVLRDAYVEKLIAGTDPSSPDYWGVIVDYDQYIVEAAALSLTLLLHKTYFWSCFSEKQQENIMVWLNKALGCKIPKNNWTFFKVLIRLALEGCGQVINQAELEEELALIECMYLGDGWYMDGKTTQRDYYISFAFHYYSLIYVKFMRERDPIRAKRFTERAVMFAQDYLYYFDEEGEALPYGRSQTYRFAQGAFFAALIFAEVEALPWGQIKTLLAKHLHCWMQQAIFTYDGRLSIGYHYENLVMAEGYNAPGSPYWAFKTFLLLAVDQDHPFWRAEPLAIKREEKRLEHHHHHH | not soluble
SLERSQVFNILRMMPKGAALHLHDIGIVTMDWLVRNVTYRPHCHICFTPRGIMQFRFAHPTPRPSEKCSKWILLEDYRKRVQNVTEFDDSLLRNFTLVTQHPEVIYTNQNVVWSKFETIFFTISGLIHYAPVFRDYVFRSMQEFYEDNVLYMEIRARLLPVYELSGEHHDEEWSVKTYQEVAQKFVETHPEFIGIKIIYSDHRSKDVAVIAESIRMAMGLRIKFPTVVAGFDLVGHEDTGHSLHDYKEALMIPAKDGVKLPYFFHAGETDWQGTSIDRNILDALMLNTTRIGHGFALSKHPAVRTYSWKKDIPIEVCPISNQVLKLVSDLRNHPVATLMATGHPMVISSDDPAMFGAKGLSYDFYEVFMGIGGMKADLRTLKQLAMNSIKYSTLLESEKNTFMEIWKKRWDKFIADVATK | soluble
MEGESVKLSSQTLIQAGDDEKNQRTITVNPAHMGKAFKVMNELRSKQLLCDVMIVAEDVEIEAHRVVLAACSPYFCAMFTGDMSESKAKKIEIKDVDGQTLSKLIDYIYTAEIEVTEENVQVLLPAASLLQLMDVRQNCCDFLQSQLHPTNCLGIRAFADVHTCTDLLQQANAYAEQHFPEVMLGEEFLSLSLDQVCSLISSDKLTVSSEEKVFEAVISWINYEKETRLEHMAKLMEHVRLPLLPRDYLVQTVEEEALIKNNNTCKDFLIEAMKYHLLPLDQRLLIKNPRTKPRTPVSLPK | soluble
GHMREMLQVERPKLILDDGKRTDGRKPDELRSIKIELGVLKNADGSAIFEMGNTKAIAAVYGPKEMHPRHLSLPDRAVLRVRYHMTPFSTDERKNPAPSRREIELSKVIREALESAVLVELFPRTAIDVFTEILQADAGSRLVSLMAASLALADAGIPMRDLIAGVAVGKADGVIILDLNETEAMWGEADMPIAMMPSLNQVTLFQLNGSMTPDEFRQAFDLAVKGINIIYNLEREALKSKYVEFKEEGV | soluble
MSESIESYGIRLLNVYRETICDGPGLHYSIYLAGCRHACPGCHNPSSWDPEAGVLMTDSILGNIIREINANPLLDGITLSGGDPFYNPAGLTCLLQRLRASCTLPIWCYTGYTLEQLETDPMLSAPLALIDVLVDGPFVRELFDPTLLWRGSSNQCIIRLHENLEHHHHHH | not soluble
MKLLEVHILQTVAPSNLNRDDTGSPKDALFGGFRRARISSQAQKRAVRVAFRDWPLLSEEERAVRTKRLVEELLRRLAGVEEELARRAIENALNALGFGVKEGRTEYLLFLGNRELDALAQGIRENLEALSGEVKGKKKAEVPPELKKALERVLDGGKAVDLALFGRMLADRPELGVDAAAQVAHALSTHKVDREFDFYTAVDDLNPKEDTGAGMMGDVEFYSATLYRYAVVDLDKLVENLQGDKELALKGVLAFLEAFALTLPSGKQNSFAAHNPPLFVAFRAGEGMPRNLATAFEAPLRPKEEVPLSRLSAEALLKEWAKFDRVYGPLEPEWKGALDLTGAEGDGVPRLENLKALKEKAAEAVKALLGV | soluble
GPLGSMTGPSVHDRALGAFLGLAVGDALGATVEFMTKGEIAQQYGIHRKMTGGGWLRLKPGQITDDTEMSLALGRSLAAKGTLDVADICEEFALWLKSRPVDVGNTCRRGIRRYMHEGTTTAPYSEGDAGNGAAMRCLPAALATLGHPADLEPWVLAQARITHNHPLSDAACLTLGRMVHHLIGGRGMKACREEANRLVHQHRDFHFEPYKGQSSAYIVDTMQTVLHYYFVTDTFKSCLIQTVNQGGDADTTGALAGMLAGATYGVDDIPSGWLSKLDMKVEREIRRQVDALLALAGLD | soluble
MAGEKAQKKGKEKWKEKTWYTVESPPYLGSKEVTVALGEDPESMVNRIVEVPISDLTGNFKKSNEKALFRITGCEGTKCKTIFIGHYIGDDYIRRLVRRRKERIDIIEDVKTSDGSIITVKIVVVSDGKLTNTKKSEIRKALTSFIVSKGSQLSYADFVRYLIGDDSYNDMVEATKNIYPLRKIEIRKSELVSLSGMQEPQKNEPAPGGEAIAQNLEHHHHHH | soluble
MGSDKIHHHHHHMLDPAGARVQIAKGRRDAADEPEDEDQMTRLEAFGDRKFPAAELILSSEGRGWDGIGTQVRRHPAGEIPVPVPDQMEVTLAIAGSQTGRVERRSGSAFQNTTARPGTLWFCPIGVTEDSIRITETLPMVQHVFLAKSQFDSLSELSSRSLSPASIAYLADVNDELVRQICQRIYREAQEETSSGKILIDCLAQSLVAHLVSDYSHDSRIHLGPDSGPSKLDDARLRRVLDYIYGNIDQDLSLSKLSEVACLSKHHFARAFREATGTPPYRFISERRLDHALNLLKDSRLSLAEIAYICRFSSQATFTRAFRRHVGTSPGEYRHLSRT | not soluble
MSLGEKTKLEQIKDNGKLVVGTSAEFPPFEFHKVVDGKDSIKGFDIMLAEEFAKELGVKVEIKDMSFDGLIGALNADQVDIVLAGMSPTPEREKSVDFSELYYLSRNAVIVKDADIDKVKTEDDLKKLRVGVQAGSIQEEYVVNTLKMTTTKSLKAIPDLITELKNGNIDAVVTNEAVSLINVKKYDGIKMANTEVGKDVTEGMAAAIKKSDNNKDFIELLNKKIKELQDGKKIEEFLNEASTEAASEGHHHHHH | soluble
MGSDKIHHHHHHMCIYCISKQVFCLSGLRFPYGFTPMGLHLRSLNMAYINKSNVSILRSLSCASISLYYSMSAAASHLEVDDPALAERCELEMGWQQPRSDHARTQLNATTTCSRNQWEWHVGLASNVNDDIREEQAEVGIKLPLNLNSHSDSNRQQDDWHSALVINLQKNLDASNELATEVFGIFGKTLSDSDVSLYANVGFTHEFNQSTQLLVGIAAAHELSSHHRVITELYQKELSETAYQFAYQHTPQQQLQLELSLGNALRGNALQLGADITFYFGH | not soluble
MGHHHHHHSHGLNSSRNLLIISQKSDQILNYITNGADRGATKIPVLGGHTGHSQNMIMTTLSTHEVPKVQEEIQKIDETAFIVIIPASTVMGRGFSLQKDYKSVPNDFINP | soluble
